Like-named read-outs stand apart in the source and are kept apart here.
Experiments:
Format in all cases: biochemical
[1] = tested on: Talaromyces stipitatus GH61A polypeptide; details: AVICEL; ascorbic acid 5 mM; T. stipitatus GH61A 0.4 or 2 mg per gram cellulose; 1, 3 and 7 days
[2] = tested on: Penicillium pinophilum GH61A polypeptide; details: AVICEL; ascorbic acid 5 mM; P. pinophilum GH61A 0.4 or 2 mg per gram cellulose; 1, 3 and 7 days
[3] = tested on: Trichoderma reesei cellulase composition; details: for Percent conversion of milled unwashed PCS: GH61 present (0.2 mg/g cellulose); for Percent conversion of milled unwashed PCS / Enhancement of hydrolysis of milled unwashed PCS by the presence of GH61 polypeptide: no heterocyclic compound
[4] = molecular target: Trichoderma reesei GH61B polypeptide (Trichoderma reesei, UniProt Q7Z9M7); experiment: Effect of ascorbic acid on T. reesei GH61B polypeptide during hydrolysis of AVICEL; details: ascorbic acid 5 mM
[5] = tested on: Thielavia terrestris GH61E polypeptide; experiment: Effect of ascorbic acid on T. terrestris GH61E polypeptide during hydrolysis of AVICEL; details: ascorbic acid 5 mM, T. terrestris GH61E 0.4 or 2 mg per gram cellulose, 1, 3 and 7 days
[6] = molecular target: Aspergillus fumigatus GH61B polypeptide (Aspergillus fumigatus, UniProt Q4WP32); experiment: Effect of ascorbic acid on A. fumigatus GH61B polypeptide during hydrolysis of AVICEL; details: ascorbic acid 5 mM, A. fumigatus GH61B 0.4 or 2 mg per gram cellulose, 1, 3 and 7 days
[7] = tested on: Trichoderma reesei cellulase composition
[8] = tested on: Trichoderma reesei cellulase composition; experiment: Hydrolysis of AVICEL (microcrystalline cellulose) by the T. reesei cellulase composition, with/without GH61 polypeptide or heterocyclic compound; details: GH61 polypeptide present (0.4 mg per g cellulose), no heterocyclic compound

Trichoderma reesei GH61B polypeptide, sequence (Q7Z9M7 20-249): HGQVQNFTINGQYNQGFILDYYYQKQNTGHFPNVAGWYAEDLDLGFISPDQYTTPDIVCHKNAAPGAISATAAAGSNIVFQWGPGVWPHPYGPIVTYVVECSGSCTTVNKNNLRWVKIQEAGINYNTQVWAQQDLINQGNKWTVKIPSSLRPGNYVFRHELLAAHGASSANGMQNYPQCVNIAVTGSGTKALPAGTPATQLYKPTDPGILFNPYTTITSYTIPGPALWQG
Aspergillus fumigatus GH61B polypeptide, sequence (Q4WP32 22-250): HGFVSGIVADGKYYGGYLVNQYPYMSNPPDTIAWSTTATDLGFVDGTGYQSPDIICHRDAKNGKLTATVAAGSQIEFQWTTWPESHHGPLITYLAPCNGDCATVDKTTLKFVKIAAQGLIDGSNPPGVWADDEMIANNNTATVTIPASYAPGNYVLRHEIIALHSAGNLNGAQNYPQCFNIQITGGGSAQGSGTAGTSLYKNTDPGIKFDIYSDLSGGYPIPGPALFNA

O=C1OC(C(O)CO)C(O)=C1O (stereo not drawn) [ascorbic acid, (1,2-dihydroxyethyl)-3,4-dihydroxyfuran-2(5H)-one]
GH61 effect in the presence of heterocyclic compound [1]: greater than 1 | heterocyclic compound effect(+GH61) [1]: increased | GH61 effect in the presence of heterocyclic compound [2]: greater than 1 | heterocyclic compound effect(+GH61) [2]: increased | heterocyclic compound effect(no GH61) ([3]; milled unwashed PCS, compound 5 mM, cellulase 2 mg per g cellulose, no GH61, 1, 3 and 7 days): greater than 1 | heterocyclic compound effect(+GH61) ([4]; T. reesei GH61B 2 mg per g cellulose): increased | GH61 effect in the presence of heterocyclic compound ([4]; T. reesei GH61B at high level (2 mg per g cellulose)): greater than 1 | GH61 effect in the presence of heterocyclic compound [5]: greater than 1 | heterocyclic compound effect(+GH61) [5]: increased | GH61 effect in the presence of heterocyclic compound [6]: greater than 1 | heterocyclic compound effect(+GH61) [6]: increased | heterocyclic compound effect(no GH61) ([7]; milled washed PCS, compound 5 mM, no GH61, 1, 3 and 7 days): slightly decreased

B1: T. aurantiacus GH61A polypeptide: GH61A polypeptide having cellulolytic enhancing activity (SEQ ID NO: 14), recombinantly prepared using Aspergillus oryzae JaL250 as a host (protein, listed as Thermoascus aurantiacus)
chain: MSFSKIIATAGVLASASLVAGHGFVQNIVIDGKYYGGYLVNQYPYMSNPPEVIAWSTTATDLGFVDGTGYQTPDIICHRGAKPGALTAPVSPGGTVELQWTPWPDSHHGPVINYLAPCNGDCSTVDKTQLEFFKIAESGLINDDNPPGIWASDNLIAANNSWTVTIPTTIAPGNYVLRHEIIALHSAQNQDGAQNYPQCINLQVTGGGSDNPAGTLGTALYHDTDPGILINIYQKLSSYIIPGPPLYTG
Percent conversion of AVICEL ([8]; 1 day, 16±1% in the absence of GH61): 16±1% | Percent conversion of AVICEL ([8]; 3 days, 31±4% in the absence of GH61): 30±4% | Percent conversion of AVICEL ([8]; 7 days, 45±3% in the absence of GH61): 45±4% | Percent conversion of milled unwashed PCS ([3]; 1 day, cellulase 2 mg per g cellulose, 18.7±0.1% in the absence of GH61): 22.2±0.1% | Enhancement of hydrolysis of milled unwashed PCS by the presence of GH61 polypeptide ([3]; 1 day): 19% | Percent conversion of milled unwashed PCS ([3]; 3 days, cellulase 2 mg per g cellulose, 28.2±0.3% in the absence of GH61): 34.3±0.3% | Enhancement of hydrolysis of milled unwashed PCS by the presence of GH61 polypeptide ([3]; 3 days): 21% | Percent conversion of milled unwashed PCS ([3]; 7 days, cellulase 2 mg per g cellulose, 36.9±0.3% in the absence of GH61): 44.0±0.2% | Enhancement of hydrolysis of milled unwashed PCS by the presence of GH61 polypeptide ([3]; 7 days): 19% | Enhancement of hydrolysis of milled washed PCS by the presence of GH61 polypeptide ([7]; 1 day, no heterocyclic compound): 14% | Enhancement of hydrolysis of milled washed PCS by the presence of GH61 polypeptide ([7]; 3 days, no heterocyclic compound): 31% | Enhancement of hydrolysis of milled washed PCS by the presence of GH61 polypeptide ([7]; 7 days, no heterocyclic compound): 31% | Percent conversion of milled washed PCS ([7]; day 1, GH61 present (0.4 mg per g cellulose), cellulase 4 mg per g cellulose, no heterocyclic compound, 37±1% in the absence of GH61): 42±1% | Percent conversion of milled washed PCS ([7]; day 1, cellulase 2 mg per g cellulose, GH61 at 10% (w/w) of the cellulase composition, 24±0.7% in the absence of GH61): 27±0.8% | Percent conversion of milled washed PCS ([7]; day 1, cellulase 2 mg per g cellulose, GH61 at 25% (w/w) of the cellulase composition, 24±0.7% in the absence of GH61): 27±0.8% | Percent conversion of milled washed PCS ([7]; day 1, cellulase 2 mg per g cellulose, GH61 at 50% (w/w) of the cellulase composition, 24±0.7% in the absence of GH61): 27±0.8% | Percent conversion of milled washed PCS ([7]; day 3, GH61 present (0.4 mg per g cellulose), cellulase 4 mg per g cellulose, no heterocyclic compound, 55±1% in the absence of GH61): 72±1% | Percent conversion of milled washed PCS ([7]; day 3, cellulase 2 mg per g cellulose, GH61 at 10% (w/w) of the cellulase composition, 41±2% in the absence of GH61): 55±3% | Percent conversion of milled washed PCS ([7]; day 3, cellulase 2 mg per g cellulose, GH61 at 25% (w/w) of the cellulase composition, 41±2% in the absence of GH61): 57±0.5% | Percent conversion of milled washed PCS ([7]; day 3, cellulase 2 mg per g cellulose, GH61 at 50% (w/w) of the cellulase composition, 41±2% in the absence of GH61): 59±2% | Percent conversion of milled washed PCS ([7]; day 7, GH61 present (0.4 mg per g cellulose), cellulase 4 mg per g cellulose, no heterocyclic compound, 67±0.2% in the absence of GH61): 88±2%
